Measured values taken from PMC7006816, “Human β-Defensin 2 Mediated Immune Modulation as Treatment for Experimental Colitis” (Frontiers in Immunology, 2020).
Where no end group is shown, it is not given here.

Tests used:
[1] = system: C57BL/6 mice with DSS colitis; experiment: DSS colitis model; type: in vivo, mouse; details: 0.1 mg/kg s.c. once a day
Description: The DSS colitis study was performed by Farma-Cros Ibérica according to directive 86/609 EEC and approved by Novozymes science ethics committee. 7–8 weeks old male C57BL/6 mice were used (Charles River) and each group consisted of 10 animals. Animal allocation to all experimental groups was done in a randomized manner. Colitis was induced by supplementing the drinking water with 2% dextran sodium sulfate (DSS, 30–50 kDA, MP Biomedicals) for 7 days. On day 1 all mice were weighed and the drinking bottle was filled with the DSS solution, this solution was replaced on day 3 and 5. On day 8 the remaining solution was discarded and replaced with autoclaved water. Mice were divided into 3 groups. One group received PBS as sham treatment intravenously. One group received on day 1, 4, and 8, 300 μg/mouse of a mouse anti-TNF-α antibody (αTNF, Ramcon) intraperitoneally. The animals in the other group were dosed s.c. with 0.1 mg/kg hBD2 once a day, starting at day 1 until day 10. Animals were euthenized on day 10. Daily clinical assessment was carried out to calculate a validated clinical disease activity index (DAI) ranging from 0 to 4 according to the following parameters: body weight loss, presence or absence of rectal bleeding, stool consistency. One mouse in the DSS control group had to be euthanized before the end of the study.
(§1) Sections of the colon were taken from each animal and preserved in neutral buffered formaline for subsequent histological analysis. Sections were stained using haematoxylin and eosin for further scoring.

murine BM-DC's = experiment: Cytokine production by murine BM-DC's; type: cell-based, mouse; details: n = 3
Description: BM-DC's were generated using granulocyte-macrophage colony-stimulating factor (GM-CSF) and RPMI-1640 medium (Merck) supplemented with 10% fetal calf serum (FBS; Life Technologies), 2 mM glutamine (Thermo Fisher), 100 U/ml penicillin/streptomycin (Gibco), 50 μM 2-mercaptoethanol (Roth), 1 mM sodium pyruvate (Biochrome), and 1x non-essential amino acids (Biochrome) as previously described ([28]). Shortly, 2 × 10^6 bone marrow cells flushed from the tibias and femurs of C57BL/6 mice were seeded in dishes containing 200 U/ml GM-CSF. After 3 days extra medium containing GM-CSF was added to the cells and on day 6 half of the medium was replaced by fresh […] containing GM-CSF. After 7 or 8 days slightly attached cells were harvested. Female C57BL/6JolaHsd mice were purchased from Janvier (St. Berthevin Cedex, France). Animal experiments were performed in strict accordance with the German regulations of the Society for Laboratory Animal Science (GV-SOLAS) and the European Health Law of the Federation of Laboratory Animal Science Associations (FELASA). The protocol was approved by the Regierungspräsidium Tübingen (Anzeige 09.01.2014).
2 × 10^5 murine BM-DC's or human Mo-DC's were seeded in 96-well round bottom plates. First they were pretreated with 100 ng/ml pertussis toxin (Sigma-Aldrich) or 5 μM of the CCR2 inhibitor RS 504393 (Tocris) and subsequently stimulated with 100 ng/ml LPS or 0.2 […] and 10 μg/ml or 100 μg/ml hBD2. 24 h later supernatants were collected and TNF-α [Biolegend (BM-DC's); R&D (Mo-DC's)] was analyzed according to the manufacturer's instructions. IL-10, IL-12, and IL-1β (LEGENDplex Biolegend) was as well-analyzed according to the manufacturer's instructions.

NMRI mice = experiment: In vivo toxicity test, single s.c. dose; parameters: species or system mouse; details: for Clinical signs at the end of the day of dosing / Clinical signs on the day of dosing: Clinical signs / Clinical signs on the day of dosing: No clinical signs / Clinical signs on the day of dosing: Pruritus / Necropsy: Macroscopic findings: female NMRI mice; for Clinical signs at the end of the day of dosing / Clinical signs on the day of dosing: Clinical signs / Clinical signs on the day of dosing: No clinical signs / Clinical signs on the day of dosing: Pruritus: animals/group; for Necropsy: Macroscopic findings: necropsy day 4, animals/group
Description: In vivo toxicity of hBD2 was assessed in 6–8 weeks old female NMRI mice (Taconic Europe). All animal studies were performed according to Danish legislations for laboratory animals and approved by Novozymes science ethics committee. hBD2 was given subcutaneously (s.c.) in the intrascapular region using a 25G needle and a 1 ml syringe. […] Clinical signs were recorded on day 0 and monitored until experimental endpoints. Body weights were recorded as a minimum on day 0, day 2, and day 4 prior to euthanasia. Necropsy was performed after euthanasia and kidneys, spleens and livers were weighed.

[2] = system: BALB/cByJ mice with TNBS colitis; experiment: TNBS colitis model; type: in vivo, mouse; details: hBD2 0.1 mg/kg s.c. once a day
Description: The TNBS colitis study was performed by Farma-Cros Ibérica according to directive 86/609 EEC and approved by Novozymes science ethics committee. Male BALB/cByJ mice were used (Janvier) and each group consisted of 15 animals. Animal allocation to all experimental groups was done in a randomized manner. Colitis was induced on day 0 by intracolonic (distal) administration of trinitrobenzene sulfonic acid (TNBS), 1 mg/mouse in 50% ethanol under mild anesthesia (ketamine/xylazine). Treatment of the animals started on day 0 after induction of colitis. All compounds were applied s.c. Mice received PBS (TNBS control), Prednisolone (10 mg/kg), or hBD2 0.1 mg/kg), respectively. In the TNBS control group as well as in the Prednisolone group, 2 animals had to be sacrificed before the end of the experiment. All other animals were sacrificed on day 10. Daily clinical assessment was carried out to calculate a validated clinical DAI ranging from 0 to 4 according to the following parameters: body weight loss, presence or absence of rectal bleeding, stool consistency.
as §1

[3] = LPS, hBD2 100 μg/ml, 24 h, LEGENDplex

**Q.** “human β-defensin 2 (GIGDPVTCLKSGAICHPVFCPRRYKQIGTCGLPGTKCCKKP; not fully specified; ends and bridges not checked) [hBD2, Recombinant human β-defensin 2 expressed in E. coli as his-tagged thioredoxin fusion, cleaved and purified, natural tertiary structure]” was tested. Which “Outcome of DSS colitis” value ([1]; day 1-10, 2% DSS 7 days, n = 10) did it give?
**A.** The value was “significant improvement of colitis”.

**Q.** What about the “Therapeutic effect compared with anti-TNF-α antibody (300 μg/mouse i.p. day 1, 4, 8)” value ([1]; 2% DSS) of the same substance?
**A.** The value was “superior to anti-TNF-α treatment”.

**Q.** And the “Histology score of the colon (mucosal damage)” value ([1]; 2% DSS, end of experiment, n = 10)?
**A.** Its value is “significantly reduced mucosal damage”.

**Q.** What about the DAI ([1]; 2% DSS, n = 10) of the same substance?
**A.** Its DAI is “improved the DAI”.

**Q.** What about the Weight change ([1]; 2% DSS, n = 10) of the same substance?
**A.** Its Weight change is “prevented excessive weight loss”.

**Q.** What about the “TNF-α production in LPS-challenged murine BM-DCs” value (murine BM-DC's; LPS, hBD2 100 μg/ml or 10 μg/ml, 24 h, ELISA) of the same substance?
**A.** The value was “dose-dependently curbed TNF-α production”.

**Q.** And the IL-10 secretion (murine BM-DC's; [3])?
**A.** The IL-10 secretion was “substantial induction”.

**Q.** What about the “LPS-induced IL-1β secretion” value (murine BM-DC's; [3]) of the same substance?
**A.** The value was “alleviated”.

**Q.** And the “LPS-induced IL-12p70 secretion” value (murine BM-DC's; [3])?
**A.** Its value is “alleviated”.

**Q.** What about the “LPS-induced TNF-α secretion” value (murine BM-DC's; [3]) of the same substance?
**A.** Its value is “alleviated”.

**Q.** What about the “Cytokine production after TLR-independent activation” value (murine BM-DC's; cytokine cocktail TNF-α, IL-6, IL-1β (0.2 mg/ml each), hBD2 100 μg/ml) of the same substance?
**A.** The value was “failed to modulate TLR-independent activation of BM-DCs”.

**Q.** What about the “Clinical signs after systemic challenge” value (NMRI mice; 0.5 mg/kg s.c.) of the same substance?
**A.** Its value is “did not develop any clinical signs”.

**Q.** And the “Clinical signs at the end of the day of dosing” value (from here on “Clinical signs at the end”) (NMRI mice; 0.5 mg/kg s.c.)?
**A.** The value was 0/3.

**Q.** And the “Clinical signs on the day of dosing: Clinical signs” value (NMRI mice; 0.5 mg/kg s.c.)?
**A.** Its value is 0/3.

**Q.** And the “Clinical signs on the day of dosing: No clinical signs” value (“Clinical signs … No clinical signs” below) (NMRI mice; 0.5 mg/kg s.c.)?
**A.** The value was 3/3.

**Q.** And the “Clinical signs on the day of dosing: Pruritus” value (from here on “Clinical signs … Pruritus”) (NMRI mice; 0.5 mg/kg s.c.)?
**A.** The value was 0/3.

**Q.** And the “Necropsy: Macroscopic findings” value (NMRI mice; 0.5 mg/kg s.c.)?
**A.** Its value is 0/3.

**Q.** And the “Clinical signs at the end” value (NMRI mice; 10 mg/kg s.c.)?
**A.** Its value is 0/3.

**Q.** What about the “Clinical signs on the day of dosing: Clinical signs” value (NMRI mice; 10 mg/kg s.c.) of the same substance?
**A.** Its value is 3/3.

**Q.** And the “Clinical signs … No clinical signs” value (NMRI mice; 10 mg/kg s.c.)?
**A.** Its value is 0/3.

**Q.** What about the “Clinical signs … Pruritus” value (NMRI mice; 10 mg/kg s.c.) of the same substance?
**A.** The value was 3/3.

**Q.** And the “Necropsy: Macroscopic findings” value (NMRI mice; 10 mg/kg s.c.)?
**A.** Its value is 0/3.

**Q.** And the “Clinical signs at 60 min post dosing” value (NMRI mice; 40 mg/kg s.c.)?
**A.** The value was “still affected at 60 min post dosing”.

**Q.** And the “Clinical signs at the end” value (NMRI mice; 40 mg/kg s.c.)?
**A.** The value was 0/3.

**Q.** What about the “Clinical signs … No clinical signs” value (NMRI mice; 40 mg/kg s.c.) of the same substance?
**A.** Its value is 0/3.

**Q.** And the “Clinical signs … Pruritus” value (NMRI mice; 40 mg/kg s.c.)?
**A.** Its value is 3/3.

**Q.** And the “Necropsy: Macroscopic findings” value (NMRI mice; 40 mg/kg s.c.)?
**A.** The value was 0/3.

**Q.** What about the Body weight gain (NMRI mice; 0.5, 10, 40 mg/kg s.c., day 0-4) of the same substance?
**A.** The Body weight gain was “did not show any weight loss”.

**Q.** What about the “Adverse effects at necropsy” value (NMRI mice; 0.5, 10, 40 mg/kg s.c., necropsy day 4) of the same substance?
**A.** Its value is “no adverse effects were observed at necropsy”.

**Q.** And the “Organ weight (liver, spleen, kidneys)” value (NMRI mice; 0.5, 10, 40 mg/kg s.c., necropsy day 4, hBD2 mice n = 3, control n = 2)?
**A.** Its value is “nor did the organ weight differ significantly between the groups”.

**Q.** And the “Clinical signs shortly after challenge” value (NMRI mice; 10 or 40 mg/kg s.c., 10–15 min after challenge, transient)?
**A.** The value was “mild clinical signs”.

**Q.** And the “Microscopic analysis of the colon (mucosa)” value ([2]; TNBS)?
**A.** The value was “nearly normal mucosa”.

**Q.** What about the Weight change ([2]; TNBS 1 mg/mouse, n = 15) of the same substance?
**A.** Its Weight change is “trended toward increased weight gain from day 1–7”.

**Q.** What about the Colon weight ([2]; TNBS, n = 15) of the same substance?
**A.** Its Colon weight is “significantly reduced colon weight”.

**Q.** What about the “Macroscopic score of colon” value ([2]; TNBS, n = 15) of the same substance?
**A.** Its value is “significantly improved”.

**Q.** What about the “Microscopic score of colon” value ([2]; TNBS, n = 15) of the same substance?
**A.** The value was “significantly improved”.
